Experimental data from patent publication US20210388087A1 (Chugai, published 2021).
Changes are numbered by the printed parent chain. Numbers in names are those of the source.

B1: H183/L072 VH A57I (antibody, name in Kabat numbering, V domains shown)
VH: QVQLVESGGGLVQPGRSLRLSCAASGFTFSNAWMHWVRQAPGKGLEWVAQIKDKGNAYAIYYAPSVKGRFTISRDDSKNSIYLQMNSLKTEDTAVYYCHYVHYASASTVLPAFGVDAWGQGTTVTVSS
VL: DIVMTQSPLSLPVTPGEPASISCQASQELVHMNRNTYLHWYQQKPGQAPRLLIYKVSNRFPGVPDRFSGSGSGTDFTLKISRVEAEDVGVYYCAQGTSVPFTFGQGTKLEIK
B2: H183/L072 VH A60M (antibody, name in Kabat numbering, V domains shown)
VH: B1 VH with I60A, A63M
VL: B1 VL
B3: H183/L072 VH A57Q (antibody, name in Kabat numbering, V domains shown)
VH: B1 VH with I60Q
VL: B1 VL
B4: H183/L072 VH A60K (antibody, name in Kabat numbering, V domains shown)
VH: B1 VH with I60A, A63K
VL: B1 VL
B5: H183/L072 VH A60W (antibody, name in Kabat numbering, V domains shown)
VH: B1 VH with I60A, A63W
VL: B1 VL
B6: H183/L072 VH A57N (antibody, name in Kabat numbering, V domains shown)
VH: B1 VH with I60N
VL: B1 VL
B7: H183/L072 VH A60H (antibody, name in Kabat numbering, V domains shown)
VH: B1 VH with I60A, A63H
VL: B1 VL
B8: H183/L072 VH A60S (antibody, name in Kabat numbering, V domains shown)
VH: B1 VH with I60A, A63S
VL: B1 VL
B9: H183/L072 VH A57P (antibody, name in Kabat numbering, V domains shown)
VH: B1 VH with I60P
VL: B1 VL
B10: H183/L072 VH A60V (antibody, name in Kabat numbering, V domains shown)
VH: B1 VH with I60A, A63V
VL: B1 VL
B11: H183/L072 VH A60R (antibody, name in Kabat numbering, V domains shown)
VH: B1 VH with I60A, A63R
VL: B1 VL
B12: H183/L072 VH A98L (antibody, name in Kabat numbering, V domains shown)
VH: B1 VH with I60A, A104L
VL: B1 VL
B13: H183/L072 VH A102I (antibody, name in Kabat numbering, V domains shown)
VH: B1 VH with I60A, A117I
VL: B1 VL
B14: H183/L072 VH A57T (antibody, name in Kabat numbering, V domains shown)
VH: B1 VH with I60T
VL: B1 VL
B15: H183/L072 VH A60Y (antibody, name in Kabat numbering, V domains shown)
VH: B1 VH with I60A, A63Y
VL: B1 VL
B16: H183/L072 VH A98M (antibody, name in Kabat numbering, V domains shown)
VH: B1 VH with I60A, A104M
VL: B1 VL
B17: H183/L072 VH A57R (antibody, name in Kabat numbering, V domains shown)
VH: B1 VH with I60R
VL: B1 VL
B18: H183/L072 VH A100fM (antibody, name in Kabat numbering, V domains shown)
VH: B1 VH with I60A, A112M
VL: B1 VL
B19: H183/L072 VH A60G (antibody, name in Kabat numbering, V domains shown)
VH: B1 VH with I60A, A63G
VL: B1 VL
B20: H183/L072 VH A100P (antibody, name in Kabat numbering, V domains shown)
VH: B1 VH with I60A, A106P
VL: B1 VL
B21: H183/L072 VH A102L (antibody, name in Kabat numbering, V domains shown)
VH: B1 VH with I60A, A117L
VL: B1 VL
B22: H183/L072 VH A60Q (antibody, name in Kabat numbering, V domains shown)
VH: B1 VH with I60A, A63Q
VL: B1 VL
B23: H183/L072 VH A57V (antibody, name in Kabat numbering, V domains shown)
VH: B1 VH with I60V
VL: B1 VL
B24: H183/L072 VH A57K (antibody, name in Kabat numbering, V domains shown)
VH: B1 VH with I60K
VL: B1 VL
B25: H183/L072 VH A60T (antibody, name in Kabat numbering, V domains shown)
VH: B1 VH with I60A, A63T
VL: B1 VL
B26: H183/L072 VH A100I (antibody, name in Kabat numbering, V domains shown)
VH: B1 VH with I60A, A106I
VL: B1 VL
B27: H183/L072 VH A57M (antibody, name in Kabat numbering, V domains shown)
VH: B1 VH with I60M
VL: B1 VL
B28: H183/L072 VH A60P (antibody, name in Kabat numbering, V domains shown)
VH: B1 VH with I60A, A63P
VL: B1 VL
B29: H183/L072 VH A98P (antibody, name in Kabat numbering, V domains shown)
VH: B1 VH with I60A, A104P
VL: B1 VL
B30: H183/L072 VH A100fI (antibody, name in Kabat numbering, V domains shown)
VH: B1 VH with I60A, A112I
VL: B1 VL
B31: H183/L072 VH A100fP (antibody, name in Kabat numbering, V domains shown)
VH: B1 VH with I60A, A112P
VL: B1 VL
B32: H183/L072 VH A100fL (antibody, name in Kabat numbering, V domains shown)
VH: B1 VH with I60A, A112L
VL: B1 VL
B33: H183/L072 VH A60N (antibody, name in Kabat numbering, V domains shown)
VH: B1 VH with I60A, A63N
VL: B1 VL
B34: H183/L072 VH A102M (antibody, name in Kabat numbering, V domains shown)
VH: B1 VH with I60A, A117M
VL: B1 VL
B35: H183/L072 VH A98I (antibody, name in Kabat numbering, V domains shown)
VH: B1 VH with I60A, A104I
VL: B1 VL
B36: H183/L072 VH A100L (antibody, name in Kabat numbering, V domains shown)
VH: B1 VH with I60A, A106L
VL: B1 VL
B37: H183/L072 VH A100M (antibody, name in Kabat numbering, V domains shown)
VH: B1 VH with I60A, A106M
VL: B1 VL
B38: H183/L072 VH A57S (antibody, name in Kabat numbering, V domains shown)
VH: B1 VH with I60S
VL: B1 VL
B39: H183/L072 VH A57Y (antibody, name in Kabat numbering, V domains shown)
VH: B1 VH with I60Y
VL: B1 VL
B40: H183/L072 VH A60D (antibody, name in Kabat numbering, V domains shown)
VH: B1 VH with I60A, A63D
VL: B1 VL
B41: H183/L072 VH A60I (antibody, name in Kabat numbering, V domains shown)
VH: B1 VH with I60A, A63I
VL: B1 VL
B42: H183/L072 VH A60F (antibody, name in Kabat numbering, V domains shown)
VH: B1 VH with I60A, A63F
VL: B1 VL
B43: H183/L072 VH A60L (antibody, name in Kabat numbering, V domains shown)
VH: B1 VH with I60A, A63L
VL: B1 VL
B44: H183/L072 VH A60E (antibody, name in Kabat numbering, V domains shown)
VH: B1 VH with I60A, A63E
VL: B1 VL

target: T1, Human CD137 ECD (human); assay: single mutant vs template dBBDu183H
T1 construct: also called 4-1BB
T1 sequence (chain, as listed by the source limits assumed): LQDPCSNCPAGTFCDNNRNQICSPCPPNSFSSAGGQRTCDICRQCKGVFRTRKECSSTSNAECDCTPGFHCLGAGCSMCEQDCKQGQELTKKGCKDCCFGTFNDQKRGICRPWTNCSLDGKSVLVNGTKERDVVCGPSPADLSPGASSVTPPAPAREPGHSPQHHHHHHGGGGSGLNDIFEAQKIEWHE

Row | Binder | fold change of affinity
1 | B1 | 0.1 fold
2 | B2 | 1 fold
3 | B3 | 0.9 fold
4 | B4 | 1.1 fold
5 | B5 | 0.9 fold
6 | B6 | 0.3 fold
7 | B7 | 1.3 fold
8 | B8 | 1 fold
9 | B9 | 1 fold
10 | B10 | 0.9 fold
11 | B11 | 1.2 fold
12 | B12 | 0 fold
13 | B13 | 0 fold
14 | B14 | 0.6 fold
15 | B15 | 1.2 fold
16 | B16 | 0 fold
17 | B17 | 0.5 fold
18 | B18 | 0 fold
19 | B19 | 0.8 fold
20 | B20 | 0.3 fold
21 | B21 | 0.9 fold
22 | B22 | 1.1 fold

Row | Binder | fold change of affinity
23 | B23 | 0.5 fold
24 | B24 | 0.9 fold
25 | B25 | 1.3 fold
26 | B26 | 0 fold
27 | B27 | 0.7 fold
28 | B28 | 0.1 fold
29 | B29 | 0 fold
30 | B30 | 0 fold
31 | B31 | 0.3 fold
32 | B32 | 0 fold
33 | B33 | 1.3 fold
34 | B34 | 0 fold
35 | B35 | 0 fold
36 | B36 | 0 fold
37 | B37 | 0.7 fold
38 | B38 | 0.8 fold
39 | B39 | 0 fold
40 | B40 | 0.6 fold
41 | B41 | 0.7 fold
42 | B42 | 1.2 fold
43 | B43 | 1.1 fold
44 | B44 | 0.8 fold
